In patent publication US20190367608A1 (ACTICOR BIOTECH, published 2019):

T1: double mutant GPVI-Fc (S125P, S126Q, G128R, Q133K, T136S, T171D, A172L, H174V) (human, UniProt Q9HCN6 21-269)
T1 construct: also called GPVI double mutant; not shown: human IgG1 Fc domain
T1 chain: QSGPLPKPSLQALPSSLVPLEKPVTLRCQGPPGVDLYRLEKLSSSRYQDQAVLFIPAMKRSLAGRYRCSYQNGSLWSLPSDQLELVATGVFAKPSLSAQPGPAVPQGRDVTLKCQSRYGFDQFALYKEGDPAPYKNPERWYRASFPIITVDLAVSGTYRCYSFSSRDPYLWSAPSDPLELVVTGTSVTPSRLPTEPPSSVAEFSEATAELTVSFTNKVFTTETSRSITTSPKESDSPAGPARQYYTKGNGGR

B1: wild-type soluble GPVI-Fc (Fc fusion)
chain: QSGPLPKPSLQALPSSLVPLEKPVTLRCQGPPGVDLYRLEKLSSSRYQDQAVLFIPAMKRSLAGRYRCSYQNGSLWSLPSDQLELVATGVFAKPSLSAQPGPAVSSGGDVTLQCQTRYGFDQFALYKEGDPAPYKNPERWYRASFPIITVTAAHSGTYRCYSFSSRDPYLWSAPSDPLELVVTGTSVTPSRLPTEPPSSVAEFSEATAELTVSFTNKVFTTETSRSITTSPKESDSPAGPARQYYTKGNGGR
notes: The gene encodes the ectodomain from the first methionine to asparagine 269; also called wild-type GPVI-Fc; not shown: human IgG1 Fc domain

Tests used:
[1] = target: T2, Collagen; experiment: ELISA: collagen coated at 20 µg/mL, increasing GPVI-Fc, peroxidase-coupled anti-human Fc, absorbance at 450 nm
T2 construct: Horm collagen (Nycomed) is named only for the platelet aggregation assays; The collagen used in the ELISA is not specified
Description: Microtitration plates were coated with Collagen in PBS (20 μg/mL, 100 μL per well) overnight at 4° C.
(§1) Nonspecific binding sites were saturated with 200 μL of 1% BSA in PBS for 30 min. The plates were then incubated with increasing concentrations of wild-type or double mutant GPVI-Fc preparations (100 μL in PBS containing 0.1% BSA and 0.1% Tween 20) for 30 min. After 3 washing rounds plates were incubated with a peroxidase-coupled secondary human anti-Fc(ab) for 30 min. Finally, 100 μL of the substrate solution were added to each well for 4 min, and the colorimetric reaction stopped by 25 μL NaOH 3 M.

[2] = target: T1, double mutant GPVI-Fc (S125P, S126Q, …); experiment: ELISA: double mutant GPVI-Fc coated at 20 µg/mL, increasing ACT017, peroxidase-coupled anti-human IgG, absorbance at 450 nm
Description: as §1, with “Microtitration plates were coated with GPVI-Fc in PBS (20 μg/mL, 100 μL per well) overnight at 4° C. Nonspecific” for “Nonspecific”, “ACT017” for “wild-type or double mutant GPVI-Fc”, “anti-IgG” for “anti-Fc(ab)”

[3] = target: B1; experiment: ELISA: GPVI-Fc coated at 20 µg/mL, increasing ACT017, peroxidase-coupled anti-human IgG, absorbance at 450 nm
Description: as §1, with “Microtitration plates were coated with GPVI-Fc in PBS (20 μg/mL, 100 μL per well) overnight at 4° C. Nonspecific” for “Nonspecific”, “ACT017” for “wild-type or double mutant GPVI-Fc”, “anti-IgG” for “anti-Fc(ab)”

EC50 (read off the curve) [1] [µg/mL]	binding result [2]	EC50 (read off the curve) [3] [µg/mL]	Binder
~0.6	–	–	B1
–	no binding (tested: about 830 ng/ml)	~0.03	ACT017 antibody (Fab, V domains shown, Humanized anti-human GPVI; also called the Fab of the invention) VH: QVQLVQSGAEVKKPGASVKVSCKASGYTFTSYNMHWVRQAPGQGLEWMGGIYPGNGDTSYNQKFQGRVTMTRDTSTSTVYMELSSLRSEDTAVYYCARGTVVGDWYFDVWGQGTLVTVSS VL: DIQMTQSPSSLSASVGDRVTITCRSSQSLENSNGNTYLNWYQQKPGKAPKLLIYRVSNRFSGVPSRFSGSGSGTDFTFTISSLQPEDIATYYCLQLTHVPWTFGQGTKVEITR
